The record followed here is patent US20260242730A1 (POINTLOMA BIOSCIENCES, published 2026).

For test [1], the target named is T1, human TROP2 (antigen of panning and clone screening) (human, UniProt P09758 27-274, limits assumed).
T1 construct: also called human TROP2-His protein; TROP2-expressing CHOK1 cells
T1 sequence (looked up): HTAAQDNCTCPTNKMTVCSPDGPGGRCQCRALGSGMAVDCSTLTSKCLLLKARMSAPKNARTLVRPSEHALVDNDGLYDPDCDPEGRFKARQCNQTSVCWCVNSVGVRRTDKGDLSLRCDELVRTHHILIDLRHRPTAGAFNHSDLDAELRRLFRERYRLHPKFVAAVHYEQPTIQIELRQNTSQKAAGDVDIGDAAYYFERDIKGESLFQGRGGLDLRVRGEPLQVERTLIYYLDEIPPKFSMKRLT
Put plainly: positive phage clones from panning on human TROP2-His protein or on TROP2-expressing CHOK1 cells, ELISA. The text has this: After confirming successful immunization with TROP2 protein, PBMC was isolated and used for construction of a phage display library with the size of 2.42×10⁹ cfu. TROP2 VHH binders were isolated from the phage display library using solid phase panning on human TROP2-His protein and cell-based panning on the engineered, TROP2-expressing CHOK1 cells in two parallel discovery campaigns. […] Stringency was increased during successive rounds by decreasing antigen concentration, increasing the number and duration of washes, and/or changing the duration of selections. The positively identified phages were diluted and spread on a petri dish to grow single colonies. Individual phage clones were selected and amplified. […] After three rounds of screening on TROP2 CHOK1 cells, a total of 384 clones were selected, of which 163 clones were TROP2-specific as tested by ELISA. After sequencing the positive clones, 9 unique sequences were obtained based on amino acid sequences. In combination, a total of 20 unique sequences were identified.
In general terms: An ELISA detects its analyte on a solid surface through an enzyme-linked reagent.

In test [2] the target is T2, recombinant human TROP2 protein (human, UniProt P09758 27-274).
T2 chain: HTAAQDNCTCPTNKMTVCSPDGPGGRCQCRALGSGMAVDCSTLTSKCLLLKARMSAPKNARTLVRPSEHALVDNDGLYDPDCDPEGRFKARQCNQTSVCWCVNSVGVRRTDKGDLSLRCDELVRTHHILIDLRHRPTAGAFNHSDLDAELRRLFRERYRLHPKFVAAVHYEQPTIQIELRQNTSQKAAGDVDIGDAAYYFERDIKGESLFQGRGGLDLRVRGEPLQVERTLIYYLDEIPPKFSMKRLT
Put plainly: binding of TROP2 protein to binder-expressing γδ T cells.

B1: anti-TROP2 #TP6 VHH (VHH)
VHH: QLQLVESGGGLVQPGGSLRLSCAASGTLDYWTVGWFRQAPGKEREGVSCISSSDSSTYYADSVKGRFTISRDNAKNTVYLQMNSLKPEDTAVYYCAAGSLGYCSRSTPQYEYDFWGQGTQVTVSS
Consider B1, for which, in test [1], the binding result is “binds”.

B2: anti-TROP2 #TP16 VHH (VHH)
VHH: QVQLVESGGGLVQPGGSLRLSCAASGFAFSFYVMTWYRQAPGKQREQVAAITSYGGANYADSVKGRFTISRDNAKNTVYLQMNALTSEDTAVYSCNAHLGPYDYWGQGTQVTVSS
As to B2, the binding result in test [1] is “binds”.

B3: anti-TROP2 #TP14 VHH (VHH)
VHH: EVQVVESGGGLVQPGGSLRLSCAVSGFTLDWYAIGWFRQAPGKEHEGVACIDPSERSTYADPVKGRFTISRDNAKNTVHLQMNSLKPEDTAVYYCAADTLPCFFYGSMWPPPDNWGQGTQVTVSS
Turning to B3, in test [1], the binding result is listed as “binds”.

B4: TROP2 CAR with anti-TROP2 VHH #TP14, on γδ T cells (other)
chain: EVQVVESGGGLVQPGGSLRLSCAVSGFTLDWYAIGWFRQAPGKEHEGVACIDPSERSTYADPVKGRFTISRDNAKNTVHLQMNSLKPEDTAVYYCAADTLPCFFYGSMWPPPDNWGQGTQVTVSSTTTPAPRPPTPAPTIASQPLSLRPEACRPAAGGAVHTRGLDFACDIYIWAPLAGTCGVLLLSLVITLYCKRGRKKLLYIFKQPFMRPVQTTQEEDGCSCRFPEEEEGGCELRVKFSRSADAPAYQQGQNQLYNELNLGRREEYDVLDKRRGRDPEMGGKPRRKNPQEGLYNELQKDKMAEAYSEIGMKGERRRGKGHDGLYQGLSTATKDTYDALHMQALPPR
What is called EC50 is the concentration at which the effect is half-maximal. Consider B4, for which, in test [2], the EC50 turned out to be 3.65 nM.

B5: anti-TROP2 #TP20 VHH (VHH)
VHH: EVQVVESGGGLVQPGGSLRLSCAASGNIKSTAVMGWHRQAPGKEREWVAIITTGEDRFSGDRLQYADSVKDRFTISRDNAKNTVYLQMNSLKPEDTAVYYCNVDVLYMADGRYARSEFWGQGTQVTVSS
In the case of B5, in test [1], the binding result was “binds”.

B6: anti-TROP2 #TP9 VHH (VHH)
VHH: QVQLVESGGGLVQPGGSLRLSCAASGFSLDYWAIAWFRQAPGKEREGVSCSGSRGSTHYADSVKGRFTISRDNAKNTVYLQMNSLKPEDAGVYYCAVGSTLYSLTPYEYDYWGQGTQVTVSS
As to B6, the binding result in test [1] is reported as “binds”.

B7: anti-TROP2 #TP10 VHH (VHH)
VHH: QVQLVESGGGLVQPGGSLRLSCAASGFRLDHWAIGWFRQAPGKEREGVSCSGSDESTYYADSVKGRFTISRDNAKNTVYLQMNSLKPEDTGVYYCAVGSTWYSLTPYEYDYWGQGTQVTVSS
B7: the binding result in test [1] was “binds”.

B8: anti-TROP2 #TP17 VHH (VHH)
VHH: EVQLVESGGGMVQPGGSLRLSCAFSGLTFSNYAMTWYRQAPGKERELVAGTPSPGGTTTYADSVKGRFTISRDNAEDTVYLQMNSLKPEDTAVYYCHARWMWPSDNAGMGYWGKGTLVTVSS
Consider B8, for which the binding result in test [1] is recorded as “binds”.

B9: TROP2 CAR with anti-TROP2 VHH #TP6, on γδ T cells (other)
chain: QLQLVESGGGLVQPGGSLRLSCAASGTLDYWTVGWFRQAPGKEREGVSCISSSDSSTYYADSVKGRFTISRDNAKNTVYLQMNSLKPEDTAVYYCAAGSLGYCSRSTPQYEYDFWGQGTQVTVSSTTTPAPRPPTPAPTIASQPLSLRPEACRPAAGGAVHTRGLDFACDIYIWAPLAGTCGVLLLSLVITLYCKRGRKKLLYIFKQPFMRPVQTTQEEDGCSCRFPEEEEGGCELRVKFSRSADAPAYQQGQNQLYNELNLGRREEYDVLDKRRGRDPEMGGKPRRKNPQEGLYNELQKDKMAEAYSEIGMKGERRRGKGHDGLYQGLSTATKDTYDALHMQALPPR
With B9, the EC50 in test [2] was determined as 17.7 nM.

B10: anti-TROP2 #TP4 VHH (VHH)
VHH: QLQLVESGGGLVQPGGSLRLSCAASGFTLDDYAMRWFRQAPGKAREGVSCISRSDGTTYYADSVKGRFTISRNNAENTVYLQMNSLKPEDTAVYYCAADSLGCNGYSDWGVDYWAKGTLVTVSS
Consider B10, for which the binding result in test [1] is “binds”.

B11: anti-TROP2 #TP13 VHH (VHH)
VHH: EVQLVESGGGLVQPGGSLRLSCALSGFTKDYYGIGWFRQAPGKEREGVSCISVSGSSTNYADSVKGRFTISRDNAKNTVYLQMNSLKPEDTGVYYCAAAFMGSDYVVPEMSREYDYWGQGTQVTVSS
For B11, in test [1], the binding result was “binds”.

B12: anti-TROP2 #TP18 VHH (VHH)
VHH: QVQLVESGGGLVQPGGSLRLSCAASSSIFSIAIMGWYRQAPGKQRELVATISATDVTHYADSVKGRFTISRDDAWNAVYLQMDSLKAEDTAVYYCNSYLLQQRVPWGQGTQVTVSS
As to B12, the binding result in test [1] is listed as “binds”.

B13: anti-TROP2 #TP19 VHH (VHH)
VHH: EVQVVESGGGLVQPGGSLRLSCAASRSVFNIAIMGWYRQAPGKQRELVASISATDVTSYADSVKGRFTISRDDAWNAVYLQMDSLKSEDTAVYYCNSYLLQQRVPWGQGTQVTVSS
On to B13, for which the binding result in test [1] is listed as “binds”.

B14: anti-TROP2 #TP1 VHH (VHH)
VHH: EVQVVESGGGLAQPGGSLRLSCAASGFWFSTYAMSWARQAPGKGLEWVSGIYADGSATYYADSVKGRFTISRDNAKNTLYLHMNSLKPEDTALYYCAQGYSDYDRRVGGYDYWGQGTQVTVSS
B14: in test [1], the binding result was “binds”.

B15: anti-TROP2 #TP2 VHH (VHH)
VHH: EVQLVESGGGLAQPGGSLRLSCAASGFTFSTYAMSWARQAPGKGLEWVSGIYADGSGTYYADSVKGRFTISRDNAKNTLYLQMNSLKPEDTALYYCAQGYSDYDRRLGEYDYWGQGTQVTVSS
For B15, the binding result in test [1] is given as “binds”.

B16: anti-TROP2 #TP12 VHH (VHH)
VHH: QVQLVESGGGLVQPGGSLRLSCAASRFTLDYYAIGWIRQAPGKEREGVSCISSSGGSTNYADSVKGRFTISRDNAKNTVYLQMNSLKPEDTGVYYCAATTYACSGYVPRAYEYDYWGQGTQVTVSS
On to B16, for which the binding result in test [1] is “binds”.

B17: anti-TROP2 #TP15 VHH (VHH)
VHH: QVQLVESGGGLVQPGGSLRLSCAVSGDIFSFYSMGWYRQAPGEQRELVAHITSGGSTHYADSVKGRFTISRDNAKNTVYLQMNSPKPEDTAVYYCNADLDYWVDSMGPYWGQGTQVTVSS
As to B17, the binding result in test [1] is “binds”.

B18: anti-TROP2 #TP11 VHH (VHH)
VHH: QVQLVESGGGLVQPGGSLRVSCAASGFRLDYYAIGWFRQAPGKEREGVSSINYSSGSTVYADSVKGRFTISRGNAKNTVYLQMNSLKPEDTAVYYCAVGTVVTSLAPYEYDYWGQGTQVTVSS
B18: the binding result in test [1] is “binds”.

B19: anti-TROP2 #TP5 VHH (VHH)
VHH: QLQLVESGGGLVQPGGSLKLSCAASGFTLDYWTIGWFRQAPGKEREGVSCISSSDGSTYYADSVKGRFTISRDNAKRTVNLQMNSLKPEDTAVYYCAAGSLGYCSRSTPQYEYDFWGQGTQVTVSS
Turning to B19, the binding result in test [1] is given as “binds”.

B20: anti-TROP2 #TP7 VHH (VHH)
VHH: QLQLVESGGGLVQPGGSLRLSCAASGFSLEHWTIGWFRQAPGKEREGVSCISSSDASTYYADSVKGRFTISRDNAKKSVYLQMNSLKLEDTAVYYCAAGSLGYCSRSTPQYEYDYWGQGTQVTVSS
In the case of B20, the binding result in test [1] is “binds”.

B21: anti-TROP2 #TP8 VHH (VHH)
VHH: QLQLVESGGGLVQPGGSLRLSCAASGFTLDYWTIGWFRQAPGKEREGVSCVSSSGGITYYADSVKGRFTISRDNEKRTVYLQMNSLKPEDTAVYYCAAGSLGYCSRSTPQYEYDYWGQGTQVTVSS
Regarding B21, the binding result in test [1] was “binds”.
